Assay [1] concerns the target E-cadherin V81D L175D, as the Dimerization Activated TurboID pair (Δ-DAT: ΔEcadN and ΔEcadC). Kind of assay: split reporter.
The target is the same in assay [2]. Kind of assay: split reporter. This is another data set of the same source.

Where two headings read alike, the source gives them in different places.

For the substance “E-cadherin V81D L175D, as the Dimerization Activated TurboID pair (Δ-DAT: ΔEcadN and ΔEcadC) (receptor)”, the biotinylation relative to WT-DAT, normalized for expression in assay [1] stood at 38.7%; in assay [2], 59%.

These data come from article doi:10.1101/2025.11.07.687288.
